Data reported in paper PMC12416549 (2024).

T1: TNFR1 (Homo sapiens, UniProt P19438)
T1 chain: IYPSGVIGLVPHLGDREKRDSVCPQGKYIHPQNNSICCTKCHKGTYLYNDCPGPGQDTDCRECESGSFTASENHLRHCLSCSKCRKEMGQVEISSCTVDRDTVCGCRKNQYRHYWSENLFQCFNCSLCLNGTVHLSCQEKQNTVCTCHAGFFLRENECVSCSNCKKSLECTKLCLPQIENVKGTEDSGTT


Molecular target: T1, TNFR1
Experiment: yeast display SC50

Row | Binder | apparent Kd (screen) [nM]
1 | L79T (designed binder) SMEEEVEKAAKEYEKKKKEAIEKHLEKLKAKDKEAAERFLKELEEAAKEYAKDEAKTMSEEEAKRRAKKYKEKVLLSETSEEEQKEIKEAEEKLVRTILKYVEEAAK | 1.86
2 | K64V (designed binder) SMEEEVEKAAKEYEKKKKEAIEKHLEKLKAKDKEAAERFLKELEEAAKEYAKDEAKTMSEEEAVRRAKKYKEKVLLSELSEEEQKEIKEAEEKLVRTILKYVEEAAK | 0.653
3 | E61D (designed binder) SMEEEVEKAAKEYEKKKKEAIEKHLEKLKAKDKEAAERFLKELEEAAKEYAKDEAKTMSEDEAKRRAKKYKEKVLLSELSEEEQKEIKEAEEKLVRTILKYVEEAAK | 1.05
4 | I87H (designed binder) SMEEEVEKAAKEYEKKKKEAIEKHLEKLKAKDKEAAERFLKELEEAAKEYAKDEAKTMSEEEAKRRAKKYKEKVLLSELSEEEQKEHKEAEEKLVRTILKYVEEAAK | 2.25
5 | E26A (designed binder) SMEEEVEKAAKEYEKKKKEAIEKHLAKLKAKDKEAAERFLKELEEAAKEYAKDEAKTMSEEEAKRRAKKYKEKVLLSELSEEEQKEIKEAEEKLVRTILKYVEEAAK | 1.05
6 | E91N (designed binder) SMEEEVEKAAKEYEKKKKEAIEKHLEKLKAKDKEAAERFLKELEEAAKEYAKDEAKTMSEEEAKRRAKKYKEKVLLSELSEEEQKEIKEANEKLVRTILKYVEEAAK | 0.653
7 | D53E (designed binder) SMEEEVEKAAKEYEKKKKEAIEKHLEKLKAKDKEAAERFLKELEEAAKEYAKEEAKTMSEEEAKRRAKKYKEKVLLSELSEEEQKEIKEAEEKLVRTILKYVEEAAK | 0.718
8 | E19A (designed binder) SMEEEVEKAAKEYEKKKKAAIEKHLEKLKAKDKEAAERFLKELEEAAKEYAKDEAKTMSEEEAKRRAKKYKEKVLLSELSEEEQKEIKEAEEKLVRTILKYVEEAAK | 0.869
9 | K41Y (designed binder) SMEEEVEKAAKEYEKKKKEAIEKHLEKLKAKDKEAAERFLYELEEAAKEYAKDEAKTMSEEEAKRRAKKYKEKVLLSELSEEEQKEIKEAEEKLVRTILKYVEEAAK | 0.446
10 | M58A (designed binder) SMEEEVEKAAKEYEKKKKEAIEKHLEKLKAKDKEAAERFLKELEEAAKEYAKDEAKTASEEEAKRRAKKYKEKVLLSELSEEEQKEIKEAEEKLVRTILKYVEEAAK | 10.4
11 | A55H (designed binder) SMEEEVEKAAKEYEKKKKEAIEKHLEKLKAKDKEAAERFLKELEEAAKEYAKDEHKTMSEEEAKRRAKKYKEKVLLSELSEEEQKEIKEAEEKLVRTILKYVEEAAK | 12.5
12 | E92V (designed binder) SMEEEVEKAAKEYEKKKKEAIEKHLEKLKAKDKEAAERFLKELEEAAKEYAKDEAKTMSEEEAKRRAKKYKEKVLLSELSEEEQKEIKEAEVKLVRTILKYVEEAAK | 12.5

More lines, now with the values ahead:

Row | apparent Kd (screen) [nM] | Binder
13 | 0.869 | K68I (designed binder) SMEEEVEKAAKEYEKKKKEAIEKHLEKLKAKDKEAAERFLKELEEAAKEYAKDEAKTMSEEEAKRRAIKYKEKVLLSELSEEEQKEIKEAEEKLVRTILKYVEEAAK
14 | 13.8 | L79R (designed binder) SMEEEVEKAAKEYEKKKKEAIEKHLEKLKAKDKEAAERFLKELEEAAKEYAKDEAKTMSEEEAKRRAKKYKEKVLLSERSEEEQKEIKEAEEKLVRTILKYVEEAAK
15 | 0.653 | K18I (designed binder) SMEEEVEKAAKEYEKKKIEAIEKHLEKLKAKDKEAAERFLKELEEAAKEYAKDEAKTMSEEEAKRRAKKYKEKVLLSELSEEEQKEIKEAEEKLVRTILKYVEEAAK
16 | 4.83 | D53M (designed binder) SMEEEVEKAAKEYEKKKKEAIEKHLEKLKAKDKEAAERFLKELEEAAKEYAKMEAKTMSEEEAKRRAKKYKEKVLLSELSEEEQKEIKEAEEKLVRTILKYVEEAAK
17 | 12.5 | E45K (designed binder) SMEEEVEKAAKEYEKKKKEAIEKHLEKLKAKDKEAAERFLKELEKAAKEYAKDEAKTMSEEEAKRRAKKYKEKVLLSELSEEEQKEIKEAEEKLVRTILKYVEEAAK
18 | 10.4 | A47P (designed binder) SMEEEVEKAAKEYEKKKKEAIEKHLEKLKAKDKEAAERFLKELEEAPKEYAKDEAKTMSEEEAKRRAKKYKEKVLLSELSEEEQKEIKEAEEKLVRTILKYVEEAAK
19 | 0.956 | K23W (designed binder) SMEEEVEKAAKEYEKKKKEAIEWHLEKLKAKDKEAAERFLKELEEAAKEYAKDEAKTMSEEEAKRRAKKYKEKVLLSELSEEEQKEIKEAEEKLVRTILKYVEEAAK
20 | 2.73 | K56I (designed binder) SMEEEVEKAAKEYEKKKKEAIEKHLEKLKAKDKEAAERFLKELEEAAKEYAKDEAITMSEEEAKRRAKKYKEKVLLSELSEEEQKEIKEAEEKLVRTILKYVEEAAK
21 | 3 | A106C (designed binder) SMEEEVEKAAKEYEKKKKEAIEKHLEKLKAKDKEAAERFLKELEEAAKEYAKDEAKTMSEEEAKRRAKKYKEKVLLSELSEEEQKEIKEAEEKLVRTILKYVEEACK
22 | 0.446 | K71A (designed binder) SMEEEVEKAAKEYEKKKKEAIEKHLEKLKAKDKEAAERFLKELEEAAKEYAKDEAKTMSEEEAKRRAKKYAEKVLLSELSEEEQKEIKEAEEKLVRTILKYVEEAAK
23 | 1.54 | A36I (designed binder) SMEEEVEKAAKEYEKKKKEAIEKHLEKLKAKDKEAIERFLKELEEAAKEYAKDEAKTMSEEEAKRRAKKYKEKVLLSELSEEEQKEIKEAEEKLVRTILKYVEEAAK
24 | 11.4 | A55N (designed binder) SMEEEVEKAAKEYEKKKKEAIEKHLEKLKAKDKEAAERFLKELEEAAKEYAKDENKTMSEEEAKRRAKKYKEKVLLSELSEEEQKEIKEAEEKLVRTILKYVEEAAK
25 | 0.869 | E62Y (designed binder) SMEEEVEKAAKEYEKKKKEAIEKHLEKLKAKDKEAAERFLKELEEAAKEYAKDEAKTMSEEYAKRRAKKYKEKVLLSELSEEEQKEIKEAEEKLVRTILKYVEEAAK
26 | 0.49 | L40W (designed binder) SMEEEVEKAAKEYEKKKKEAIEKHLEKLKAKDKEAAERFWKELEEAAKEYAKDEAKTMSEEEAKRRAKKYKEKVLLSELSEEEQKEIKEAEEKLVRTILKYVEEAAK
